Source: PMC6117287
One block for each molecule: values may come before it.

How the values were obtained:
[1] = target: Isatin hydrolase A from Labrenzia aggregata (Labrenzia aggregata IAM12614); assay: crystal structure; LaIHA at 15-20 mg/mL with 1 mM MnCl2, crystallised at 22 °C; structures with benzyl benzoate (1.50 Å) and isatinate (1.79 Å); dimer in the asymmetric unit
purified protein = substrate: O=C1Nc2ccccc2C1=O; assay: purified protein; type: biochemical, Roseibium aggregatum; settings: Mn2+ dependent enzyme; one-site Michaelis-Menten fit

stoichiometry N [1]: 2
Molecule: Isatin hydrolase A from Labrenzia aggregata (enzyme)

B1: LaIHA (Roseibium aggregatum IAM 12614) (protein)
chain: MSSLNQLVSGLASGAVRIVDLTHTLDPDFPVIVLPPEFGQCARFRMEEISAYDHRGPAWKWHNISMSEHTGTHFDAPSHWISGKDVPNGSVDEIPAEAFVGPVVVIDCSKGAAENDDFELTPEIIAGWESEHGRIPEDAWVLMRTDWSKRRGADYLNMRADGPHSPGPTPEAIRFLIEERNIRGFGTETVGTDAGQGAHYVPPYPAHYLLHGAGKYGLQCLANLDQLPATGAVLIAAPLKIKNGTGSPLRVLAMVTE
Km (purified protein): 16 µM
